Source: the MegaScale stability set (Tsuboyama et al. 2023)

B1: EHEE_rd2_1257 (parent)
chain: EEERTFTNEEEARKAKKEAEKRGLRVTVTKDGTTWRVRIG

Variants of: B1
Experiment: folding stability dG (cDNA display proteolysis); higher = more stable
Conditions: PBS, room temperature

| Variant | folding stability dG |
| --- | --- |
| EEEWTFTNEEEARKAKKEAEKRGLRVTVTKDGTTWRVRIG [R4W] | 3.03 kcal/mol |
| EEEATFTNEEEARKAKKEAEKRGLRVTVTKDGTTWRVRIG [R4A] | 1.59 kcal/mol |
| EEEKTFTNEEEARKAKKEAEKRGLRVTVTKDGTTWRVRIG [R4K] | 1.97 kcal/mol |
| EEEFTFTNEEEARKAKKEAEKRGLRVTVTKDGTTWRVRIG [R4F] | 2.97 kcal/mol |
| EEEMTFTNEEEARKAKKEAEKRGLRVTVTKDGTTWRVRIG [R4M] | 2.53 kcal/mol |
| EEEYTFTNEEEARKAKKEAEKRGLRVTVTKDGTTWRVRIG [R4Y] | 2.93 kcal/mol |
| EEEITFTNEEEARKAKKEAEKRGLRVTVTKDGTTWRVRIG [R4I] | 2.38 kcal/mol |
| EEEVTFTNEEEARKAKKEAEKRGLRVTVTKDGTTWRVRIG [R4V] | 1.96 kcal/mol |
| EEEETFTNEEEARKAKKEAEKRGLRVTVTKDGTTWRVRIG [R4E] | 1.37 kcal/mol |
| EEEHTFTNEEEARKAKKEAEKRGLRVTVTKDGTTWRVRIG [R4H] | 2.17 kcal/mol |
| EEEPTFTNEEEARKAKKEAEKRGLRVTVTKDGTTWRVRIG [R4P] | 0.462 kcal/mol |
| EEEDTFTNEEEARKAKKEAEKRGLRVTVTKDGTTWRVRIG [R4D] | 0.771 kcal/mol |
| EEEQTFTNEEEARKAKKEAEKRGLRVTVTKDGTTWRVRIG [R4Q] | 2 kcal/mol |
| EEESTFTNEEEARKAKKEAEKRGLRVTVTKDGTTWRVRIG [R4S] | 1.46 kcal/mol |
| EEETTFTNEEEARKAKKEAEKRGLRVTVTKDGTTWRVRIG [R4T] | 1.61 kcal/mol |
| EEEGTFTNEEEARKAKKEAEKRGLRVTVTKDGTTWRVRIG [R4G] | 1.14 kcal/mol |
| EEELTFTNEEEARKAKKEAEKRGLRVTVTKDGTTWRVRIG [R4L] | 2.8 kcal/mol |
| EEENTFTNEEEARKAKKEAEKRGLRVTVTKDGTTWRVRIG [R4N] | 1.14 kcal/mol |
| EEERSFTNEEEARKAKKEAEKRGLRVTVTKDGTTWRVRIG [T5S] | 1.69 kcal/mol |
| EEERPFTNEEEARKAKKEAEKRGLRVTVTKDGTTWRVRIG [T5P] | 0.253 kcal/mol |
| EEERAFTNEEEARKAKKEAEKRGLRVTVTKDGTTWRVRIG [T5A] | 1.49 kcal/mol |

| Variant | folding stability dG |
| --- | --- |
| EEERQFTNEEEARKAKKEAEKRGLRVTVTKDGTTWRVRIG [T5Q] | 1.6 kcal/mol |
| EEERMFTNEEEARKAKKEAEKRGLRVTVTKDGTTWRVRIG [T5M] | 1.94 kcal/mol |
| EEERVFTNEEEARKAKKEAEKRGLRVTVTKDGTTWRVRIG [T5V] | 2.47 kcal/mol |
| EEERLFTNEEEARKAKKEAEKRGLRVTVTKDGTTWRVRIG [T5L] | 2.11 kcal/mol |
| EEERYFTNEEEARKAKKEAEKRGLRVTVTKDGTTWRVRIG [T5Y] | 2.17 kcal/mol |
| EEERRFTNEEEARKAKKEAEKRGLRVTVTKDGTTWRVRIG [T5R] | 1.52 kcal/mol |
| EEERGFTNEEEARKAKKEAEKRGLRVTVTKDGTTWRVRIG [T5G] | 0.704 kcal/mol |
| EEERNFTNEEEARKAKKEAEKRGLRVTVTKDGTTWRVRIG [T5N] | 1.29 kcal/mol |
| EEERIFTNEEEARKAKKEAEKRGLRVTVTKDGTTWRVRIG [T5I] | 2.56 kcal/mol |
| EEERHFTNEEEARKAKKEAEKRGLRVTVTKDGTTWRVRIG [T5H] | 1.68 kcal/mol |
| EEERFFTNEEEARKAKKEAEKRGLRVTVTKDGTTWRVRIG [T5F] | 2.19 kcal/mol |
| EEERWFTNEEEARKAKKEAEKRGLRVTVTKDGTTWRVRIG [T5W] | 2.45 kcal/mol |
| EEERKFTNEEEARKAKKEAEKRGLRVTVTKDGTTWRVRIG [T5K] | 1.17 kcal/mol |
| EEEREFTNEEEARKAKKEAEKRGLRVTVTKDGTTWRVRIG [T5E] | 1.65 kcal/mol |
| EEERDFTNEEEARKAKKEAEKRGLRVTVTKDGTTWRVRIG [T5D] | 1.13 kcal/mol |
| EEERTFCNEEEARKAKKEAEKRGLRVTVTKDGTTWRVRIG [T7C] | 1.95 kcal/mol |
| EEERTFMNEEEARKAKKEAEKRGLRVTVTKDGTTWRVRIG [T7M] | 1.89 kcal/mol |
| EEERTFYNEEEARKAKKEAEKRGLRVTVTKDGTTWRVRIG [T7Y] | 2.06 kcal/mol |
| EEERTFHNEEEARKAKKEAEKRGLRVTVTKDGTTWRVRIG [T7H] | 1.86 kcal/mol |
| EEERTFFNEEEARKAKKEAEKRGLRVTVTKDGTTWRVRIG [T7F] | 2 kcal/mol |
| EEERTFQNEEEARKAKKEAEKRGLRVTVTKDGTTWRVRIG [T7Q] | 1.83 kcal/mol |

| Variant | folding stability dG |
| --- | --- |
| EEERTFENEEEARKAKKEAEKRGLRVTVTKDGTTWRVRIG [T7E] | 1.94 kcal/mol |
| EEERTFLNEEEARKAKKEAEKRGLRVTVTKDGTTWRVRIG [T7L] | 1.79 kcal/mol |
| EEERTFANEEEARKAKKEAEKRGLRVTVTKDGTTWRVRIG [T7A] | 1.87 kcal/mol |
| EEERTFSNEEEARKAKKEAEKRGLRVTVTKDGTTWRVRIG [T7S] | 1.91 kcal/mol |
| EEERTFINEEEARKAKKEAEKRGLRVTVTKDGTTWRVRIG [T7I] | 1.56 kcal/mol |
| EEERTFNNEEEARKAKKEAEKRGLRVTVTKDGTTWRVRIG [T7N] | 1.98 kcal/mol |
| EEERTFRNEEEARKAKKEAEKRGLRVTVTKDGTTWRVRIG [T7R] | 1.58 kcal/mol |
| EEERTFDNEEEARKAKKEAEKRGLRVTVTKDGTTWRVRIG [T7D] | 2.25 kcal/mol |
| EEERTFGNEEEARKAKKEAEKRGLRVTVTKDGTTWRVRIG [T7G] | 1.68 kcal/mol |
| EEERTFVNEEEARKAKKEAEKRGLRVTVTKDGTTWRVRIG [T7V] | 1.7 kcal/mol |
| EEERTFPNEEEARKAKKEAEKRGLRVTVTKDGTTWRVRIG [T7P] | 1.69 kcal/mol |
| EEERTFKNEEEARKAKKEAEKRGLRVTVTKDGTTWRVRIG [T7K] | 1.63 kcal/mol |
| EEERTFWNEEEARKAKKEAEKRGLRVTVTKDGTTWRVRIG [T7W] | 1.77 kcal/mol |
| EEERTFTMEEEARKAKKEAEKRGLRVTVTKDGTTWRVRIG [N8M] | 1.18 kcal/mol |
| EEERTFTEEEEARKAKKEAEKRGLRVTVTKDGTTWRVRIG [N8E] | 1.35 kcal/mol |
| EEERTFTIEEEARKAKKEAEKRGLRVTVTKDGTTWRVRIG [N8I] | 1.39 kcal/mol |
| EEERTFTHEEEARKAKKEAEKRGLRVTVTKDGTTWRVRIG [N8H] | 1.34 kcal/mol |
| EEERTFTGEEEARKAKKEAEKRGLRVTVTKDGTTWRVRIG [N8G] | 0.865 kcal/mol |
| EEERTFTLEEEARKAKKEAEKRGLRVTVTKDGTTWRVRIG [N8L] | 1.52 kcal/mol |
| EEERTFTAEEEARKAKKEAEKRGLRVTVTKDGTTWRVRIG [N8A] | 1.07 kcal/mol |
